# “Also recorded” adds a separate entry of the source. Non-standard residues stand in square brackets, D forms with d. No end group written: not given here. Tle = CC(C)(C)[C@H](N)C(=O)O; Nva = CCC[C@H](N)C(=O)O
# Test system: pain hypersensitivity after peripheral nerve injury
# Experiment: Paw withdrawal threshold (von Frey) after chronic constriction injury of the sciatic nerve
# Assay type: in vivo, Sprague-Dawley rats
# Settings: high dose, 10 mg/kg i.v., rats, 60, 90, 120 min; 10 mg/kg
# From the text: In these experiments, chronic constriction injury of the sciatic nerve was induced using the polyethylene cuff method (Mosconi T, Kruger L., Pain 1996, 64: 37-57). The left sciatic nerve of adult male Sprague-Dawley rats was exposed at mid-thigh level under halothane anesthesia. A polyethylene cuff (PE90 tubing, 2 mm in length) was slit open longitudinally and implanted around the sciatic nerve, and the animals were allowed to recover for a suitable period, e.g., 10-14 days. A sterile isotonic saline solution containing dissolved Tat-NR2B9c, or a saline-only control, was injected into the tail vein, with the animal under brief halothane anesthesia. Sensitivity to pain was measured by testing the paw withdrawal threshold of animals. Paw withdrawal thresholds to mechanical stimulation were assessed using Von-Frey filaments (Stoelting Co., Wood Dale, Ill., USA). Animals were placed in plastic cages with a plastic bottom. To test the tactile threshold required to evoke withdrawal of the stimulated paw, von Frey filaments (0.008-15.18 g) were applied perpendicularly to the plantar part of the hind paw in an ascending order. Each filament was applied for 5 times, and the paw withdrawal threshold was determined when there were three positive responses out of five times a filament was applied. To avoid tissue damage, the cut off threshold was assigned as 15.18 g.
row,Sequence,reversal of pain hypersensitivity (paw withdrawal threshold)
1,YGRKKRRQRRRKLSSIESDV (Synthetic peptide Tat-NR2B9c) [chimeric peptide of a standard tat peptide and …],did not result in any apparent reversal of pain hypersensitivity; also recorded: had no effect on pain hypersensitivity; also recorded: showed no effect on pain hypersensitivity

# Same assay, conditions: low dose, 100 pmol per animal i.v., rats, day 10-14 after surgery
row,Sequence,reversal of pain hypersensitivity (paw withdrawal threshold)
1,YGRKKRRQRRRKLSSIESDV (Synthetic peptide Tat-NR2B9c) [chimeric peptide of a standard tat peptide and …],reversed pain hypersensitivity; also recorded: showed a decrease in pain hypersensitivity

# Target: N-type calcium channels (Mus musculus, UniProt O55017)
# Experiment: not given
# Assay type: cell-based, Swiss mice
# Settings: not given
Sequence,Ca^2+ current shown as a percentage,inhibition of N-type calcium channel activity
FGRKKRRQRRRALSSIESDV (synthetic 1995 peptide F-Tat-NR2B9c K to A) [Peptide 1995],97+/−0.2%,–
"KLSSIESDV (synthetic 1991 peptide 2B9c) [Peptide 1991, peptide 2B9c, the C-terminal portion of Tat-NR2B9c]",94+/−1.7%,no significant inhibition
YGRKKRRQRRR [Peptide 1990],57+/−1.6%,–
YGRKKRRQRRRALSSIESDV (synthetic 1994 peptide Tat-NR2B9c K to A) [Peptide 1994],77+/−1.8%,no significant inhibition; also recorded: some reduction in the amount of N-type calcium channel activity
YGRKKRRQRRRKLSSIEADA (synthetic 1992 peptide Tat-NR2B9c-AA) [Peptide 1992],74+/−2.4%,some reduction in the amount of N-type calcium channel activity
"YGRKKRRQRRRKLSSIESDV [1987] ([dY]G[dR][dK][dK][dR][dR][dQ][dR][dR][dR][dK][dL][dS][dS][dI][dE][dS][dD][dV]) [Peptide 1987, D-isomer of Tat-NR2B9c]",82+/−2.2%,some reduction in the amount of N-type calcium channel activity
"YGRKKRRQRRRKLSSIESDX [1976] (YGRKKRRQRRRKLSSIESD[Nva]) [Peptide 1976, …X where X=norvaline]",66+/−3.4%,–
"YGRKKRRQRRRKLSSIESDX [1977] (YGRKKRRQRRRKLSSIESD[Tle]) [Peptide 1977, …X where X=L-t-butyl-glycine]",65+/−5.1%,–

# Target: N-type Ca channels (Homo sapiens, UniProt Q00975)
# Experiment: not given
# Assay type: binding
# Settings: peptide at 10 μM
row,Sequence,inhibition of radiolabeled ω-Conotoxin GVIA binding to N-type Ca channels [%]
1,YGRKKRRQRRRKLSSIESDV [Tat-NR2B9c] (Synthetic peptide Tat-NR2B9c) [chimeric peptide of a standard tat peptide and …],100
